Assay results as given in patent US20050048070A1 (published 2005).

Columns and labels:
Experiment in all cases: Western blot of SDS-PAGE-separated K8 GST fusion proteins, stained with COU-1 alone
K8 (1-352) = target: T1, K8 (1-352)
T1 construct: not shown: N-terminal GST and its linker (modified pGEX-2T)
T1 chain: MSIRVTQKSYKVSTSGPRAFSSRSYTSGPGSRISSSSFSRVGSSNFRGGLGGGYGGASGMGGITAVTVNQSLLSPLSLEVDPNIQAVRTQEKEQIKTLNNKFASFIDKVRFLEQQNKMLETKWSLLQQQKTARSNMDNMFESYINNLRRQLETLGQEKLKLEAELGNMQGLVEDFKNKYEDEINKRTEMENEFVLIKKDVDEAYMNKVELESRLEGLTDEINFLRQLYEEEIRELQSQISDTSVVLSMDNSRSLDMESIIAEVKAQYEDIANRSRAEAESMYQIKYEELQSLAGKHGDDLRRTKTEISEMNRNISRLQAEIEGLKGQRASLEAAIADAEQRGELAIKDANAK

K8 (1-342) = target: T2, K8 (1-342)
T2 construct: not shown: N-terminal GST and its linker (modified pGEX-2T)
T2 chain: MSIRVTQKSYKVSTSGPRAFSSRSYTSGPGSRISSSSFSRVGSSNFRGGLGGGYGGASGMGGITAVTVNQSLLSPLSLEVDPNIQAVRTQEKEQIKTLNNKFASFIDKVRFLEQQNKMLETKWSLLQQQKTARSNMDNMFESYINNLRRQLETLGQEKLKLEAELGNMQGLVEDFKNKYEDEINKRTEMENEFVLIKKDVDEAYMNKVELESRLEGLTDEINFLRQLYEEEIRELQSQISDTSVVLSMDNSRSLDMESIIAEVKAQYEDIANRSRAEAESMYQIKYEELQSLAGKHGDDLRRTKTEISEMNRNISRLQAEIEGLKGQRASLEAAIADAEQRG

K8 (1-129) = target: T3, K8 (1-129)
T3 construct: not shown: N-terminal GST carrier (modified pGEX-2T) and any linker
T3 chain: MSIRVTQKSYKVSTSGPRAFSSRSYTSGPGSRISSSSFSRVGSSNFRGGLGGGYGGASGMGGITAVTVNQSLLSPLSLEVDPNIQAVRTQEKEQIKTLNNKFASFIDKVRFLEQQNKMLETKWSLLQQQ

K8 (1-403) = target: T4, K8 (1-403)
T4 construct: not shown: N-terminal GST and its linker (modified pGEX-2T)
T4 chain: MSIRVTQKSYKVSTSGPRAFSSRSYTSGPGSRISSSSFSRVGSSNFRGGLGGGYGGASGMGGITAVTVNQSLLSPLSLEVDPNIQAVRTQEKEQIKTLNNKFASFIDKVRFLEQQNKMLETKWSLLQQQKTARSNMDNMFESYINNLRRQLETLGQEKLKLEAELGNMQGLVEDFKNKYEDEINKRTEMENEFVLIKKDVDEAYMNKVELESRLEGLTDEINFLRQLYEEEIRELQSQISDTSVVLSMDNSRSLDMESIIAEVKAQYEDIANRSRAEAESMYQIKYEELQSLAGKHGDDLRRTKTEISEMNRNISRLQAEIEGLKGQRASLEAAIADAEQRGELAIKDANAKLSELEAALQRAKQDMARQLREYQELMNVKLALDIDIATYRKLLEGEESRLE

[1] = target: T5, K8(1-65) GST fusion protein (human, UniProt P05787 2-66)
T5 construct: Alone, not complexed; not shown: glutathione S-transferase (GST) fusion partner, modified pGEX-2T vector
T5 sequence: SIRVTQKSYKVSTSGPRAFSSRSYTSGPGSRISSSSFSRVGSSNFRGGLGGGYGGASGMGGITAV

B1: human monoclonal IgM antibody COU-1 (antibody, V domains shown)
VH: GAEVKKPGASVKVSCKASDYTFSSYYMHWVRQAPGQGLEWMGIINPSGGSTSYAQKFQGRVTMTRDTSTNTVYMELSSLRSEDTAVYYCARDQVVVAATLSNYGMDVWGQGTTVTVSS
VL: ELTQSPGTLSLSPGERATLSCRASQSVSSSYLAWYQQKPGQAPRLLIYDASNRATGIPARFSGSGSGTDFTLTISSLEPEDFAVYYCQQGTNWGIAFGQGTRLDIKR
notes: Human IgM with kappa light chain, secreted by hybridoma B9165 (ECACC 87040201), purified from culture supernatant; also called HMab COU-1; HuMab COU-1
B1: no binding (tested: 5 µg/ml COU-1 (P-0279)) (K8 (1-352)); no binding (tested: 5 µg/ml COU-1 (P-0279)) (K8 (1-342)); no binding (tested: 5 µg/ml COU-1 (P-0279)) (K8 (1-129)). B1: no binding (tested: 5 µg/ml COU-1 (P-0279)) (K8 (1-403)); no binding (tested: 5 µg/ml COU-1 (P-0279)) [1].
